# Results as given in paper PMC4434323.
# What was measured:
# [1] = biological target: T1, nhr-204 (R02C2.4) (Caenorhabditis elegans) (UniProt O44543)
# T1 sequence: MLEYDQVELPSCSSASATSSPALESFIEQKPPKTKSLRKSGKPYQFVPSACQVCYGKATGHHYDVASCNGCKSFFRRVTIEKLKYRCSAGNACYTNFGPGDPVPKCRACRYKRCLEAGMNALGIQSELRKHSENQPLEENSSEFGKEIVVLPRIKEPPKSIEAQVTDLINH
# [2] = biological target: T2, nhr-142 (F44E7.8) (Caenorhabditis elegans) (UniProt J7SF93)
# T2 sequence: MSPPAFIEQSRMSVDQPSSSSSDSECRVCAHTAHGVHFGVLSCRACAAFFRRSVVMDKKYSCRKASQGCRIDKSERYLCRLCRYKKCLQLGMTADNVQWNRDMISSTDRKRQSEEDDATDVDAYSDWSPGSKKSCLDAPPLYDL
# [3] = biological target: nhr-34 (F58G6.5) (Caenorhabditis elegans) (UniProt Q21006)
# [4] = biological target: T3, nhr-46 (C45E5.6) (Caenorhabditis elegans) (UniProt Q95QR2)
# T3 sequence: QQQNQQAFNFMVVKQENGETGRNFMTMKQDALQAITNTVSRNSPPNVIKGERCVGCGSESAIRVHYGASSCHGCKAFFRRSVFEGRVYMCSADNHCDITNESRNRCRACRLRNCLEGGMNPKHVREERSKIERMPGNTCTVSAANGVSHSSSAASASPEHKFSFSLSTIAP
# [5] = biological target: T4, atf-5 (T04C10.4) (Caenorhabditis elegans) (UniProt Q22156)
# T4 sequence: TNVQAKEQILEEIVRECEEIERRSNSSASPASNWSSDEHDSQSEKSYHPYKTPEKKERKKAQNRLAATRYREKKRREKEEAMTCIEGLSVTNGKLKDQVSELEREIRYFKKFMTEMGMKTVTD
# [6] = biological target: T5, atf-6 (F45E6.2) (Caenorhabditis elegans) (UniProt Q20435)
# T5 sequence: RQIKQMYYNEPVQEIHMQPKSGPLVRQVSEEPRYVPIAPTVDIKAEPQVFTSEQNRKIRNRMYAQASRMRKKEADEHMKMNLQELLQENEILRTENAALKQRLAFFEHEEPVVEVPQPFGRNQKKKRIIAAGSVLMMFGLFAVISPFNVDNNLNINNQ
# [7] = biological target: T6, nhr-3 (H01A20.1) (Caenorhabditis elegans) (UniProt Q9XTJ4)
# T6 sequence: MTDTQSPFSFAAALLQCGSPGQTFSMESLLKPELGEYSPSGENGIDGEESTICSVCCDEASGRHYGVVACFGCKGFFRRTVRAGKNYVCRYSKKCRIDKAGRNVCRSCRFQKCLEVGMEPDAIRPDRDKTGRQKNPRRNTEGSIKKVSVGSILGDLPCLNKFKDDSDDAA
# [8] = biological target: T7, nhr-1 (R09G11.2) (Caenorhabditis elegans) (UniProt Q21878)
# T7 sequence: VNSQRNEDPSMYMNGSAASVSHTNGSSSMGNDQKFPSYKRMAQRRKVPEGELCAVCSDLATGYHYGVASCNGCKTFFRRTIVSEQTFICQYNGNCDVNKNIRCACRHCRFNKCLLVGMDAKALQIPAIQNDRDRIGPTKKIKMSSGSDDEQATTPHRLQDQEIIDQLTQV
# [9] = biological target: T8, daf-12 (F11A1.3) (Caenorhabditis elegans) (UniProt G5EFF5)
# T8 sequence: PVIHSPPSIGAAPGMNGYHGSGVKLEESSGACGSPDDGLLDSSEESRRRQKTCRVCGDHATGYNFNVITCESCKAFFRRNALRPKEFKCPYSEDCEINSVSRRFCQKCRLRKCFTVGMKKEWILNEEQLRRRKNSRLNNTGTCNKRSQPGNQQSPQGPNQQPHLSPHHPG
# [10] = biological target: T9, ceh-34 (C10G8.6) (Caenorhabditis elegans) (UniProt Q94165)
# T9 sequence: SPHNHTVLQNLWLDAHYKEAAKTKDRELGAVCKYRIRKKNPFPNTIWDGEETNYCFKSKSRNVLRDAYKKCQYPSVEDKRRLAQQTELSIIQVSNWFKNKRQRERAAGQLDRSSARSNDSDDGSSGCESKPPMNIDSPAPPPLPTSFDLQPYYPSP
# [11] = biological target: T10, end-1 (F58E10.2) (Caenorhabditis elegans) (UniProt G5EDN4)
# T10 sequence: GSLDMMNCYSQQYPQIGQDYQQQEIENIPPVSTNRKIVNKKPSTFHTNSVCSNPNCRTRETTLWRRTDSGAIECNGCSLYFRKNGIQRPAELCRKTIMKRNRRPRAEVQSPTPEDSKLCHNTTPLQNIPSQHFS
# Sequence of nhr-34 (F58G6.5) (Caenorhabditis elegans) (Q21006 99-268): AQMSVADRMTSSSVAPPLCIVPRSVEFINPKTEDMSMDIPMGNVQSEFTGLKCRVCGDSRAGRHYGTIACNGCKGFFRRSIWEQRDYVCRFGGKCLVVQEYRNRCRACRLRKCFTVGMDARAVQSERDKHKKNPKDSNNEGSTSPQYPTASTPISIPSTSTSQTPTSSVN
sequence,measurement,setting,value
CAGACCAA (double strand) [8-mer CAGACCAA],binding signal (PBM E-score (-0.5 to 0.5)),[1],0.479
CAGTCACA (double strand) [8-mer CAGTCACA],binding signal (PBM E-score (-0.5 to 0.5)),[2],0.483
CGAGATCA (double strand) [8-mer CGAGATCA],binding signal (PBM E-score (-0.5 to 0.5)),[3],0.472
same,binding signal (PBM E-score (-0.5 to 0.5)),[4],0.46
CGTCAGCA (double strand) [8-mer CGTCAGCA],binding signal (PBM E-score (-0.5 to 0.5)),[5],0.457
CGTCAGCC (double strand) [8-mer CGTCAGCC],binding signal (PBM E-score (-0.5 to 0.5)),[5],0.491
CGTCATCC (double strand) [8-mer CGTCATCC],binding signal (PBM E-score (-0.5 to 0.5)),[5],0.487
CTGACGTA (double strand) [8-mer CTGACGTA],binding signal (PBM E-score (-0.5 to 0.5)),[6],0.474
same,binding signal (PBM E-score (-0.5 to 0.5)),[5],0.455
CTGATCAA (double strand) [8-mer CTGATCAA],binding signal (PBM E-score (-0.5 to 0.5)),[1],0.481
GAAGATCA (double strand) [8-mer GAAGATCA],binding signal (PBM E-score (-0.5 to 0.5)),[3],0.466
same,binding signal (PBM E-score (-0.5 to 0.5)),[4],0.466
GACCAAAA (double strand) [8-mer GACCAAAA],binding signal (PBM E-score (-0.5 to 0.5)),[1],0.476
GAGACCAA (double strand) [8-mer GAGACCAA],binding signal (PBM E-score (-0.5 to 0.5)),[3],0.475
GAGATCAA (double strand) [8-mer GAGATCAA],binding signal (PBM E-score (-0.5 to 0.5)),[7],0.46
same,binding signal (PBM E-score (-0.5 to 0.5)),[3],0.491
same,binding signal (PBM E-score (-0.5 to 0.5)),[4],0.495
GAGTCACA (double strand) [8-mer GAGTCACA],binding signal (PBM E-score (-0.5 to 0.5)),[2],0.485
GAGTTCAA (double strand) [8-mer GAGTTCAA],binding signal (PBM E-score (-0.5 to 0.5)),[3],0.471
GATGATCA (double strand) [8-mer GATGATCA],binding signal (PBM E-score (-0.5 to 0.5)),[8],0.488
GGAGATCA (double strand) [8-mer GGAGATCA],binding signal (PBM E-score (-0.5 to 0.5)),[3],0.473
GGTGATCA (double strand) [8-mer GGTGATCA],binding signal (PBM E-score (-0.5 to 0.5)),[8],0.488
GTCATAAA (double strand) [8-mer GTCATAAA],binding signal (PBM E-score (-0.5 to 0.5)),[2],0.484
GTGATCAA (double strand) [8-mer GTGATCAA],binding signal (PBM E-score (-0.5 to 0.5)),[1],0.478
same,binding signal (PBM E-score (-0.5 to 0.5)),[8],0.472
GTGATCAC (double strand) [8-mer GTGATCAC],binding signal (PBM E-score (-0.5 to 0.5)),[8],0.489
GTTGATCA (double strand) [8-mer GTTGATCA],binding signal (PBM E-score (-0.5 to 0.5)),[1],0.482
same,binding signal (PBM E-score (-0.5 to 0.5)),[8],0.477
TAAGATCA (double strand) [8-mer TAAGATCA],binding signal (PBM E-score (-0.5 to 0.5)),[7],0.477
same,binding signal (PBM E-score (-0.5 to 0.5)),[4],0.474
TAAGTACA (double strand) [8-mer TAAGTACA],binding signal (PBM E-score (-0.5 to 0.5)),[9],0.492
TAAGTGCA (double strand) [8-mer TAAGTGCA],binding signal (PBM E-score (-0.5 to 0.5)),[9],0.496
TAGACCAA (double strand) [8-mer TAGACCAA],binding signal (PBM E-score (-0.5 to 0.5)),[1],0.479
TCTGATCA (double strand) [8-mer TCTGATCA],binding signal (PBM E-score (-0.5 to 0.5)),[1],0.482
TGATATCA (double strand) [8-mer TGATATCA],binding signal (PBM E-score (-0.5 to 0.5)),[10],0.483
same,binding signal (PBM E-score (-0.5 to 0.5)),[11],0.493
same,binding signal (PBM E-score (-0.5 to 0.5)),[5],0.474
TGATCAAA (double strand) [8-mer TGATCAAA],binding signal (PBM E-score (-0.5 to 0.5)),[1],0.483
TTGATCAA (double strand) [8-mer TTGATCAA],binding signal (PBM E-score (-0.5 to 0.5)),[1],0.493
same,binding signal (PBM E-score (-0.5 to 0.5)),[3],0.481
